From the supplement of paper PMC10724198
± gives the standard deviation of the averaged measurements.

The sequences below were run on Saccharomyces cerevisiae (assay: protein stability index of tFT-peptide fusion (C-terminal peptide) (PSI (0-1 scale)); higher = more stable (slower turnover)). Settings: genetic background: wild type; temperature: 30 C.
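Note: PSI is a weighted mean of sequencing reads over stability bins, variants kept only with over 10 reads, mCherry proximal and sfGFP distal, peptide attached via GGGS linker.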

| Sequence | protein stability index |
| --- | --- |
| LGCSMSPYFVRF | 0.802 ± 0.074 |
| LGFCRLVFGVVG | 0.522 ± 0.01 |
| LGFISGCGVFGT | 0.708 ± 0.026 |
| LGFPLPRTPSIT | 0.792 ± 0.06 |
| LGGGGGGGVAGD | 0.723 ± 0.069 |
| LGGGVVCGVWGG | 0.704 ± 0.03 |
| LGGWLWSPGVVV | 0.6355 ± 0.0056 |
| LGILSERIGRAL | 0.7713 ± 0.0036 |
| LGKSGLTILCRD | 0.5954 ± 0.003 |
| LGLFGSVVVCGQ | 0.65 ± 0.015 |
| LGLGSFPLMDLS | 0.738 ± 0.015 |
| LGLQHPSAWLFP | 0.678 ± 0.045 |
| LGNANKRPREIK | 0.718 ± 0.032 |
| LGPFSVPCDPHF | 0.696 ± 0.04 |
| LGPGGVAWGAWW | 0.7623 ± 0.0022 |
| LGPPLLDLASLR | 0.719 ± 0.035 |
| LGPRMYKRRDLR | 0.724 ± 0.023 |
| LGRGGAASGRAL | 0.67 ± 0.062 |
| LGSSGVVGYHLD | 0.71 ± 0.054 |
| LGVGGRWVGPGA | 0.722 ± 0.027 |
| LGVNYWIYSPHG | 0.689 ± 0.01 |
| LGVPKDALKMMS | 0.685 ± 0.0078 |
| LGVPPVLLLASS | 0.506 ± 0.0077 |
| LGWLCWQFFGGT | 0.795 ± 0.14 |
| LGWVGGGGGWGC | 0.704 ± 0.03 |
| LGYGERAGVGKR | 0.6954 ± 0.0049 |

| Sequence | protein stability index |
| --- | --- |
| LHCRFDCTPFPY | 0.67 ± 0.012 |
| LHGRTLENIVVR | 0.6481 ± 0.0044 |
| LHHGMVDDCIKK | 0.70112 ± 0.00044 |
| LHPCATITELTS | 0.652 ± 0.026 |
| LHPPPLPQAPPT | 0.684 ± 0.09 |
| LHRCRPPCSIHL | 0.816 ± 0.036 |
| LHRGCSGNVPAR | 0.697 ± 0.037 |
| LHSPPLPFTPSP | 0.613 ± 0.041 |
| LIAACSFPRSSI | 0.716 ± 0.067 |
| LIFDISDLVWYI | 0.636 ± 0.031 |
| LIGMCEAGCSPF | 0.727 ± 0.012 |
| LILHVGWDSQLG | 0.667 ± 0.085 |
| LISSPKIHLRTY | 0.742 ± 0.14 |
| LISSVRLACGVS | 0.554 ± 0.061 |
| LIVPGGLSVFGG | 0.676 ± 0.082 |
| LKKEKDHKNRNR | 0.67 ± 0.016 |
| LKNFGRGAMVRT | 0.688 ± 0.013 |
| LKSSREKRDMIG | 0.578 ± 0.019 |
| LLAEPASSRFRP | 0.722 ± 0.029 |
| LLAFRVSRYFCD | 0.87 ± 0.06 |
| LLALHPLRSWPP | 0.665 ± 0.016 |
| LLALSPLSSYAL | 0.711 ± 0.084 |
| LLALVLTYLLYG | 0.564 ± 0.03 |
| LLDGGGGGVGEG | 0.765 ± 0.011 |
| LLDGRNVPRFRK | 0.792 ± 0.042 |
| LLFFFTWCLCCF | 0.569 ± 0.028 |

| Sequence | protein stability index |
| --- | --- |
| LLFRSLASMEFP | 0.6934 ± 0.0062 |
| LLGWRFFYLGVG | 0.688 ± 0.051 |
| LLHHPPPPPSQP | 0.769 ± 0.011 |
| LLHPLPPPSYPP | 0.689 ± 0.01 |
| LLHRALLFPAVM | 0.734 ± 0.017 |
| LLIFFFSSSCPL | 0.5359 ± 0.0025 |
| LLIYALPQGTHL | 0.68 ± 0.048 |
| LLKLSVPPSLYV | 0.5722 ± 0.0011 |
| LLLARDLAHPLI | 0.705 ± 0.015 |
| LLLFSILPFCLF | 0.53 ± 0.073 |
| LLLLPPPPPPPT | 0.684 ± 0.046 |
| LLLTVMSSPSLL | 0.645 ± 0.027 |
| LLNCVCSYFAWC | 0.637 ± 0.014 |
| LLNNTLENQNTL | 0.6645 ± 0.0041 |
| LLNTSPPRSVLH | 0.653 ± 0.01 |
| LLPFHPPPPCPP | 0.733 ± 0.033 |
| LLPFIPPPPCPP | 0.658 ± 0.02 |
| LLPLGSLSLSPP | 0.7257 ± 0.0024 |
| LLPLPSFSPCSL | 0.7013 ± 0.0034 |
| LLPLVLHQAFSP | 0.729 ± 0.073 |
| LLPPPPPASPAI | 0.696 ± 0.01 |
| LLPPSPSSRPLF | 0.723 ± 0.02 |
| LLPPTSRLPRLG | 0.702 ± 0.12 |
| LLPSPLPPLLRL | 0.6494 ± 0.0018 |
| LLQFYWRPCRGY | 0.699 ± 0.013 |
| LLQSPRLGQEWA | 0.6928 ± 0.0028 |

| Sequence | protein stability index |
| --- | --- |
| LLSCFGFLRVGA | 0.6076 ± 0.0049 |
| LLSHLPLPSSPP | 0.737 ± 0.096 |
| LLSPAPRSPRRP | 0.725 ± 0.019 |
| LLSPPFPPPAMV | 0.6948 ± 0.0017 |
| LLSPPPAPRPPH | 0.696 ± 0.067 |
| LLSSSLPVCLWS | 0.733 ± 0.048 |
| LLSVPSLFCQFF | 0.683 ± 0.057 |
| LLTAFQACPASN | 0.713 ± 0.04 |
| LLVCVVDREPPI | 0.685 ± 0.019 |
| LMGFVASGGDDM | 0.786 ± 0.1 |
| LNDYGLADLGII | 0.731 ± 0.0076 |
| LNEGSDRTKNKK | 0.709 ± 0.065 |
| LNHTRKDSLLTC | 0.667 ± 0.014 |
| LNPPPPPDPPPT | 0.585 ± 0.048 |
| LNSSGPGYGFPG | 0.743 ± 0.05 |
| LNWMVMLGHGAC | 0.5729 ± 0.0014 |
| LPAFHFHSPPTP | 0.688 ± 0.037 |
| LPAPARPPLVCS | 0.605 ± 0.048 |
| LPAPPTPRPAPP | 0.706 ± 0.016 |
| LPFPSCYLRASL | 0.779 ± 0.033 |
| LPFSPLSLLAHP | 0.782 ± 0.044 |
| LPGCPPADRPLV | 0.688 ± 0.13 |
| LPHLSPPPLAQL | 0.686 ± 0.033 |
